# In the nanobody polyreactivity screen of Harvey et al. (2022):
# Test: yeast display, Sf9 membrane polyspecificity reagent, FACS + sequencing; frameworks hold sequencing errors
# Method in brief: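 Synthetic nanobody libraries on Saccharomyces cerevisiae BJ5465 were galactose-induced for 36–48 hours, stained 1 hour at 4 °C with 10% biotinylated, detergent-solubilized Sf9 membrane reagent and enriched on streptavidin microbeads. FACS then separated cells into low and high (top ~1%) gates by anti-HA (expression) and streptavidin (reagent binding) fluorescence. Genes were colony-PCR amplified, MiSeq 2 × 250 sequenced and CDR-length filtered. A clone's polyreactivity label is that of its gate of origin.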
row,Sequence,polyreactivity (PSR sort gate)
1,QVQLVESGGGLVQAGGSLRLSCAASGFIIYGYVMGWYRQAPGKERELVAAINSSSGRTYYADSVKGRFTISRDNAKNTVYLQMNSLKPEDTAVYYCAAYYYGSYDGTPYDYWGQGTQVTVSS,low polyreactivity
2,QVQLVESGGGLVQAGGSLRLSCAASGFIIYRNARGWYRQAPGKERELVAGISSGGSTNYADSVKGRFTISRDNAKNTVYLQMTSLKPEDTADYYCATRVYALWFGRYDYWGQGTQVTVSS,high polyreactivity
3,QVQLVESGGGLVQAGGSLRLSCAASGFIKFYAMGWYRQAPGKERELVASISSGGRTNYADSVKGRFTISRDNAKNTVYLQMNSLKPEDTAVYYCAAIGWRTRSRFEYWGQGTQVTVSS,high polyreactivity
4,QVQLVESGGGLVQAGGSLRLSCAASGFILDTYGMGWYRQAPGKERELVAAISQSDVSTYYADSVKGRFTISRDNAKNTVSLQMNSLKPEDTAVYYCAADRAGLRWFWQLLYDYWGQGTQVTVSS,low polyreactivity
5,QVQLVESGGGLVQAGGSLRLSCAASGFILDYNAMGWYRQAPGKERELVATITGRGDRTYYADSVKGRFTISRDNAKNTVYLQMNSLKPEDTAVYYCAAAYLIYSDYGPAMDYWGQGTQVTVSS,low polyreactivity
6,QVQLVESGGGLVQAGGSLRLSCAASGFILDYNTMGWYRQAPGKERELVAAISSSGDTTYYADSVKGRFTISRDNAKNTVYLQMNSLKPEDTAVYYCGREYGDGYEYWGQGTQVTVSS,low polyreactivity
7,QVQLVESGGGLVQAGGSLRLSCAASGFILEPNAMGWYRQAPGKERELVATISFSGGGTYYADSVKGRFTISRDNAKNTVYLQMNSLKPEDTAVYYCAADWYYYVWWYDYWGQGTQVTVSS,high polyreactivity
8,QVQLVESGGGLVQAGGSLRLSCAASGFILGYYVMGWYRQAPGKERELVAAISSGGRTYYADSVKGRFTISRDNAKNTVYLQMNSLKPEDTAVYYCNAYAPRRRFDYWGQGTQVTVSS,high polyreactivity
9,QVQLVESGGGLVQAGGSLRLSCAASGFILLYYAMGWYRQAPGKERELVAAISWTGGRTYYADSVKGRFTISRDNAKNTVYLQMNSLKPEDTAVYYCNTVKFFGRKYGYWGQGTQVTVSS,low polyreactivity
10,QVQLVESGGGLVQAGGSLRLSCAASGFILPYYTMGWYRQAPGKDRELVAAITYSGASPFYADSVKGRFTISRVNAKNTVYLQMNSLKPEDTGVYYGANEWSGWYESPLDDGDYDYWGQGTEVTVSS,low polyreactivity
11,QVQLVESGGGLVQAGGSLRLSCAASGFILRQNVMGWYRQAPGKERELVAAISRSGGRTYYADSVKGRFTISRDNAMNTVYFQMNSLKPEDTAVDYCNAGRYNYTDDYWGQGTQVTVSS,high polyreactivity
12,QVQLVESGGGLVQAGGSLRLSCAASGFILVDYAMGWYRQAPGKERELVAAITYDGGSTYYADSVKGRFTISRDNAKNTVYLQMNSLKPEDTAVYYCAADYGYSQYILGQFRLEELDYWGQGTQVTVSS,low polyreactivity
13,QVQLVESGGGLVQAGGSLRLSCAASGFILYFNAMGWYRQAPGKERELVAAITTDGGSTYYADSVKGRFTISRDNAKNTVYLQMNSLKPEDTAVYYCAADASTWYTEEYWGQGTQVTVSS,low polyreactivity
14,QVQLVESGGGLVQAGGSLRLSCAASGFILYTYAMGWYIQAPGKERELVADIDSGDGTYYADSVKGRFTISRDNAKNTVYLQMNSLKPEDTAVDYCAADYGGASEYGYWGQGTQVTVSS,low polyreactivity
15,QVQLVESGGGLVQAGGSLRLSCAASGFILYVNAMGWYRQAPGKERELVAGITSSGTSTYADSVKGRFTISRDNAKNTVYLQMNSLKPEDTAVYYCAALRRPYGARDYDYWGQGTQVTVSS,low polyreactivity
16,QVQLVESGGGLVQAGGSLRLSCAASGFILYYYAKGWYRPAPGKERELVAAISWSGDSTYYADSVKGRFTISRDNAKNTVYLQMNSLKPEDTAVYYCAATWQLTHRYYWGQGTQVTVSS,low polyreactivity
17,QVQLVESGGGLVQAGGSLRLSCAASGFISAYYALGWSRQAPGKERELVAGITRGGNTYYADSVKGRFTISRDNAKNTVYLQMNSLKPEDTAVYYCAAEGSHNSEYWGQVTQVTVSS,high polyreactivity
18,QVQLVESGGGLVQAGGSLRLSCAASGFISDVYAMGWSRQAPGKEREWVAVITWRGSTYYADSVKGRFTISRDNAKYTVYLQMNSLKPEDTAVYYCAAESQGDWAFDYWGQGTQVTVSS,low polyreactivity
19,QVQLVESGGGLVQAGGSLRLSCAASGFISDVYAMGWYRQAPGKERELVAVITWRGSTYYADSVKGRFTISRDNAKNTVYLQMNSLKPEDTAFYYCAAESQGDWAFDYWGQGTQVTVSS,low polyreactivity
20,QVQLVESGGGLVQAGGSLRLSCAASGFISDWYAMGWYRQAPGKERELVATIDWIGGSTYADSVKGRFTISRDNAKNTVYLQMNSLKPEDTAVYYCAADSYFIAWYGAHYAYDYWRQGTQVTVSS,low polyreactivity
21,QVQLVESGGGLVQAGGSLRLSCAASGFISGYYTMRWYRQAPGKARELVAVINSGGSTYYADSVKGRFTISRDNAKNTVYLQMNSLKPEDTAVYYCAKLGGKYSRYYYWGQGTQVTVSS,low polyreactivity

row,Sequence,polyreactivity (PSR sort gate)
1,QVQLVESGGGLVQAGGSLRLSCAASGFISHYYAMGWYRQAPGKERELVAAIRISGDRTYYADSVKGRFTISRDNAKNTVYLQMNSLKPEDTAVYYCNAVWEYYGKSDYWGQGTQVTVSS,low polyreactivity
2,QVQLVESGGGLVQAGGSLRLSCAASGFISTYYAMGWYRQAPGKERELVAAISWNGGSTYYADSVKGRFTISRDNAKNTVYLQMNSLKPEDTAVYYCAAYLGKWRHFYSSDYDYWGQGTQVTVSS,low polyreactivity
3,QVQLVESGGGLVQAGGSLRLSCAASGFIVDYYAMGWYREAPGKERELVAAIDDSAGSTYYADSVKGRFTISRDNAKNTVYLQMNSLKPEDTAVYYCAADIYVEYDYWGQGTQVTVSS,low polyreactivity
4,QVQLVESGGGLVQAGGSLRLSCAASGFLFPKNAMGWSRQAPGTEMEWVAAISSGGARTYYADSVKGRFTISRDNAQNSVYEQMNSLKPEDTAVYYCAARTSPFWRGGGLDYWGQGTQVTVSS,high polyreactivity
5,QVQLVESGGGLVQAGGSLRLSCAASGFLPNAMGWYRQAPGKERELVAAISSRGGSTYYADSVKGRFTISRDNAKNTVYLQMISLKPEDTAVYYCAATYYGRDGYRYDYWGQGTQVTVSS,high polyreactivity
6,QVQLVESGGGLVQAGGSLRLSCAASGFNFDGNAMGWYRQEPGKEMELVARITWDDGSTYYADSVKGRFTISRDNAKNTVYLQMNSLKPEDTAVYYCNTDYGEYYSLDLLWWYIPYDYWGQGTQVTVSS,low polyreactivity
7,QVQLVESGGGLVQAGGSLRLSCAASGFNFEENAMGWYRQAPGKERELVAAINWSGGNTYYADSVKGRFTISRDNAKNTVYLQMNSLKPEDTAVYYCAAEYRSWSWRMDYWGQGTQVTVSS,high polyreactivity
8,QVQLVESGGGLVQAGGSLRLSCAASGFNFGYNALGRYRQAPGKEREMVAAISSGGSTYYADSVKGRFTISRDNAKNTVYLQMNSLQPEDTAVYYCAVELGYPIQSYALWWDFEYWGQGTQVTGSS,low polyreactivity
9,QVQLVESGGGLVQAGGSLRLSCAASGFNFRKYAMGWYRQAPGKERELVASITSGGGSTYYADSVKGRFTISRDNAKNTVYLQMNSLKPEDTAVYYCAAVAYTGGPRKLGFNYWGQGTQVTVSS,high polyreactivity
10,QVQLVESGGGLVQAGGSLRLSCAASGFNFVGNAMGWYRQAPGKERELVADITGSDGSTYYADSVKGRFTISRDNAKNTVYLQMNSLKPEDTAVYYCAASPPYKLVWWRRMDYWGQGTQVTVSS,low polyreactivity
11,QVQLVESGGGLVQAGGSLRLSCAASGFNFVRYAMGWYRQAPRKERELVAAITRRGGSTHYADSVKGRFTISRDNAKNTVYLQMNSLKPEDTAVYYCGAGRQYYYLDRFPRVQGDYWGQATQVTVSS,high polyreactivity
12,QVQLVESGGGLVQAGGSLRLSCAASGFNFWRYAMGWYRQAPGKERELVASITSTGGSTYYADSVKGRFTISRDNAKNTVYLQMNSLKPEDTAVYYCAADTFVWADWSWHYYWGQGTQVTVSS,high polyreactivity
13,QVQLVESGGGLVQAGGSLRLSCAASGFNFWRYAMGWYRQAPGKERELVAVITWSGTRTYYADSVKGRFTISRDNAKNTVYLQMNSLKPEDTAVYYCAALYYGFRLTYGYDYWGQGTQVTVSS,high polyreactivity
14,QVQLVESGGGLVQAGGSLRLSCAASGFNIYNNAMAWYRQAPGKERELVAAITSNGGRTYYADSVKGRFTISRDNAKNTFYLQMNSLKPEDTAVYYCAVDLYVWNVHYYYWGQGTQVTVSS,high polyreactivity
15,QVQLVESGGGLVQAGGSLRLSCAASGFNLRRNAMGWYRQAPGKERELVAAITSSGGRTTYADSVKGRFTISRDNAKNTVYLQMNSLKPEDTAVYYCAADFHVDYDYWGQGTQVTVSS,high polyreactivity
16,QVQLVESGGGLVQAGGSLRLSCAASGFSFLAYAMGWYRQAPGKERELVAAINSSDGTTHYADSVKGRFTISRDNAKNTVYLQMNSLKPEDTAVYYCAVSQVRTGEGYHYWGQGTQVTVSS,low polyreactivity
17,QVQLVESGGGLVQAGGSLRLSCAASGFSFWSNDMGWSRQAPGKEREFVAAITTSGGNTYYADSVKGRFTISRDNAKNTVYLQMQSLKPEDTAVYYCAAEEGSTDATGYDYWGEGTQVTVSS,low polyreactivity
18,QVQLVESGGGLVQAGGSLRLSCAASGFSVPLYTMGWYRQAPGKERELVAAISVTGGSTYYADSVKGRFTISRDNAQNTVYLPMNSLKPEDTAVYYCNAYLFFLNRVWSFDYWGQGTQVTVSS,low polyreactivity
19,QVQLVESGGGLVQAGGSLRLSCAASGFTCYIYAMGWYRQAPGKERELVAGITSGGTNYADSVKGRFTISRDNAKNTVYLQINSLKPEDTAVYYCATDYYDDVTIGYDYWGQGTQVTFSS,low polyreactivity
20,QVQLVESGGGLVQAGGSLRLSCAASGFTFAFYTMGWYRQAPGKERELVAGITRSGTNTYYADSVKGRFTISRDNAKNTVYLQMNSLKPEDTAVYYCAAAIRPGMDYWGQGTQVTVSS,high polyreactivity
